Source: publication doi:10.1101/2024.04.16.588673 (bioRxiv, 2024)

T1: parathyroid hormone 1 receptor (PTH1R), C-tagged Citrine (human, UniProt Q03431 27-593)
T1 sequence: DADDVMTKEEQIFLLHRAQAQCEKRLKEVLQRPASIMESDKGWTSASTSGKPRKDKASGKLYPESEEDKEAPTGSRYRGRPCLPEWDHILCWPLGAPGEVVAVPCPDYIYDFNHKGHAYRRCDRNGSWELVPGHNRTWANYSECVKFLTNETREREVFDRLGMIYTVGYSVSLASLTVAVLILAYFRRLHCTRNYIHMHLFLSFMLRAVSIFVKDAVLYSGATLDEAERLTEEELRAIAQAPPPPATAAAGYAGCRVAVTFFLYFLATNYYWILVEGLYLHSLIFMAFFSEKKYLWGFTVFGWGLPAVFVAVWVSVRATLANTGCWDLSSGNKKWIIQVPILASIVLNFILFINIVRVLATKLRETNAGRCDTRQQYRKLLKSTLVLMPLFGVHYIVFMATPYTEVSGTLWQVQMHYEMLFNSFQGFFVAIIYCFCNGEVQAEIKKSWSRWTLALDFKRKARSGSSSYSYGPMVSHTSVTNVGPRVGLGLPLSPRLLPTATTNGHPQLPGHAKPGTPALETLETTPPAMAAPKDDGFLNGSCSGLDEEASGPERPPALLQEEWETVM


Target: T1, parathyroid hormone 1 receptor (PTH1R), …
Assay: FRET or BRET

stoichiometry N	Binder
~1 RAMP2 per PTH1R	receptor activity-modifying protein 2 (RAMP2), C-tagged Cerulean (natural protein) QPLPTTGTPGSEGGTVKNYETAVQFCWNHYKDQMDPIEKDWCDWAMISRPYSTLRDCLEHFAELFDLGFPNPLAERIIFETHQIHFANCSLVQPTFSDPPEDVLLAMIIAPICLIPFLITLVVWRSKDSEAQA
~2 RAMP3 per PTH1R	receptor activity-modifying protein 3 (RAMP3), C-tagged Cerulean (natural protein) RAGGCNETGMLERLPLCGKAFADMMGKVDVWKWCNLSEFIVYYESFTNCTEMEANVVGCYWPNPLAQGFITGIHRQFFSNCTVDRVHLEDPPDEVLIPLIVIPVVLTVAMAGLVVWRSKRTDTLL
